From patent publication US12329823B2 (The Scripps Research Institute, priority 2021, dated 2025)
Like-named read-outs stand apart in the source and are kept apart here.

Tests used:
human GIPR = molecular target: T1, human GIPR (Homo sapiens, UniProt P48546); assay: In vitro receptor activation reporter assay (CRE-Luc, HEK293-GIPR-CRE cells; receptor-mediated cAMP synthesis); format: cell-based
T1 construct: expressed in transfected cells; host or cells: HEK293 (CRE-HEK293, HEK293-GIPR-CRE)
T1 sequence (P48546 22-466): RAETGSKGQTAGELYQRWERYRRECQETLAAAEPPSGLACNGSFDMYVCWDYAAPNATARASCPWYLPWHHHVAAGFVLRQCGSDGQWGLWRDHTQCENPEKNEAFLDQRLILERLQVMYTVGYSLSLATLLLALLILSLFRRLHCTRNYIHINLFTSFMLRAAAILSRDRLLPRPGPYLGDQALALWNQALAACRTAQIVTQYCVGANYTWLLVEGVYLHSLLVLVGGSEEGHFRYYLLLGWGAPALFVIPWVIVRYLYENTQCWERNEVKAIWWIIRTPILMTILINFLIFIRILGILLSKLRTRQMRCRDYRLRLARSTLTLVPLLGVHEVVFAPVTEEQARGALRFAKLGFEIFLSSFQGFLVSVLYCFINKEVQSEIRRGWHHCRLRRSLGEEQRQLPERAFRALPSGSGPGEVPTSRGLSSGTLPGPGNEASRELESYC

cynomolgous monkey GLP1R = cynomolgous monkey GLP1R (Macaca fascicularis, UniProt F8V479); assay: In vitro potency, cynomolgous monkey GLP1R activation (receptor-mediated cAMP synthesis); format: cell-based; settings: Table 12; read-out: In Vitro Potency GLP1R EC50, Cyno
Sequence of cynomolgous monkey GLP1R (F8V479 24-463): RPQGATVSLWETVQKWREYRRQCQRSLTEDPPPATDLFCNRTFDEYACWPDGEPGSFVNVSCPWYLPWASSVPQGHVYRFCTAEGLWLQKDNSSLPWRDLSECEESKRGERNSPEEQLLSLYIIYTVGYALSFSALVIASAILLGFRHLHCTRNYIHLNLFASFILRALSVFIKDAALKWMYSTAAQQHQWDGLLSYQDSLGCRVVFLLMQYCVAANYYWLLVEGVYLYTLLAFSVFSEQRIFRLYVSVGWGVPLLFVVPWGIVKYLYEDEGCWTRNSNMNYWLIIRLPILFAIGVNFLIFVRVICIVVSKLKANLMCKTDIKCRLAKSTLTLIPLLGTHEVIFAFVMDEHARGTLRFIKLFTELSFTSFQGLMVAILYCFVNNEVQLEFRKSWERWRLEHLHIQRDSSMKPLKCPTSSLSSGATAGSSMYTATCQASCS
Protocol: (§1) GLP-1R-CRE or HEK293-GIPR-CRE cells were seeded in 384-well plates at a density of 5000 cells per well and cultured for 18 h in DMEM with 10% FBS at 37° C. and 5% CO2. Cells were treated with peptides in a dose dependent manner for 24 h, and receptor activation was reported by luminescence intensities, using One-Glo (Promega, WI) luciferase reagent following manufacturer's instruction. The EC50 of each peptide was determined using GraphPad Prism 6 software (GraphPad, San Diego, CA). Results are depicted in FIGS. 6A-6B, FIGS. 7A-7B, FIGS. 8A-8B, FIGS. 9A-9B, and Tables 7-12. Measurements of peptide conjugate potency were expressed as half maximal effective concentration (EC50) values.

dog GLP1R = molecular target: T2, dog GLP1R (Canis lupus familiaris, UniProt A0A8I3NUR9); assay: In vitro potency, dog GLP1R activation (receptor-mediated cAMP synthesis); format: cell-based; settings: Table 12
T2 sequence (A0A8I3NUR9 1-464): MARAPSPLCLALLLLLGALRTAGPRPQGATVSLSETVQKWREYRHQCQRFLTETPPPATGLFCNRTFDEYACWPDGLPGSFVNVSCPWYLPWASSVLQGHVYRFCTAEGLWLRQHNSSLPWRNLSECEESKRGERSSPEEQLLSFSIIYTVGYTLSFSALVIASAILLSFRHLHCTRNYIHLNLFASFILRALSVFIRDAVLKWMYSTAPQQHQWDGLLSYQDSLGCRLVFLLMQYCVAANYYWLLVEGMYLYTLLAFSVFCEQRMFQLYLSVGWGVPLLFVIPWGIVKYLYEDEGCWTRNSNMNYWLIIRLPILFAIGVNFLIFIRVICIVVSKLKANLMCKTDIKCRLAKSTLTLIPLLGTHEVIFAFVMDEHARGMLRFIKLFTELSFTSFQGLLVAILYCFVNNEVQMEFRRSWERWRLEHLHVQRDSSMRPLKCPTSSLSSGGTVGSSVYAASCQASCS
Protocol: as §1

dog GIPR = molecular target: T3, dog GIPR (Canis lupus familiaris, UniProt A0A8I3MPG1); assay: In vitro potency, dog GIPR activation (receptor-mediated cAMP synthesis); format: cell-based; settings: Table 12; read-out: In Vitro Potency GIPR EC50, Dog
T3 sequence (A0A8I3MPG1 24-449): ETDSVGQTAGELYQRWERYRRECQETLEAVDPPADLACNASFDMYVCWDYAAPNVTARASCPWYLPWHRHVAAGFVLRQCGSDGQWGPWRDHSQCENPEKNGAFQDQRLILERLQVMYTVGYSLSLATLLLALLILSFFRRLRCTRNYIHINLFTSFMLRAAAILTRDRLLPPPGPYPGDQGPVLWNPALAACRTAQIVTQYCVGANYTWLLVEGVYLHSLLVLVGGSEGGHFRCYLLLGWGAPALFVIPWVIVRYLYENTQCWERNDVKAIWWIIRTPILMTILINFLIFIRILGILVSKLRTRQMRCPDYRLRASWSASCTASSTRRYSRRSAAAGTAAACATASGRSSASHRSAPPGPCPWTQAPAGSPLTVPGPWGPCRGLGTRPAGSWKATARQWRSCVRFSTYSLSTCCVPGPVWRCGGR
Protocol: as §1

[1] = Pharmacokinetics in CD-1 mouse, I.V. or S.C. 1 mg/kg, plasma concentration by LC-MS; settings: for AUC(0-inf): AUCINF; for MRT last: MRTLAST; for half-life: T1/2, Table 14;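 on all read-outs here: peptide levels in plasma quantified by LC-MS across multiple sampling times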
Protocol: The peptide plasma concentration at various time points was determined using LC-MS.

human GLP-1R = human GLP-1R (Homo sapiens, UniProt P43220); assay: In vitro receptor activation reporter assay (CRE-Luc, HEK293-GLP-1R-CRE cells; receptor-mediated cAMP synthesis); format: cell-based; parameters: expressed in transfected cells; host or cells: HEK293 (CRE-HEK293, HEK293-GLP-1R-CRE)
Sequence of human GLP-1R (P43220 24-463): as the sequence (F8V479 24-463) above, with N112S, S120F, G202S, V205L, F237L, R241W, V249I counted along it
Protocol: HEK293 cells were infected with lentivirus encoding firefly luciferase gene under the control of cAMP responsive element (CRE) promoter (Qiagen, The Netherlands) and then were selected using 1 μg mL^−1 puromycin (Life Technologies, Carlsbad) for 1 week. The surviving cells (referred to as CRE-HEK293) were expanded and then transfected with a G418 selective mammalian expression plasmid encoding human GLP-1R or GIPR. In brief, GLP-1R or GIPR plasmid was transfected into CRE-HEK293 cells using Lipofectamine 2000 and selected with 400 μg mL^−1 Geneticin (Life Technologies, Carlsbad, CA). Single colony stable cell line overexpressing CRE-luciferase and GLP-1R or GIPR (HEK293-GLP-1R-CRE or HEK293-GIPR-CRE) was then established for in vitro activity assay.
HEK293 cells were infected with lentivirus encoding firefly luciferase gene under the control of cAMP responsive element (CRE) promoter (Qiagen, The Netherlands) and then were selected using 1 μg/mL puromycin (Life Technologies, Carlsbad) for 1 week. The surviving cells (referred to as CRE-HEK293) were expanded and then transfected with a G418 selective mammalian expression plasmid encoding human GLP-1R. In brief, GLP-1R plasmid was transfected into CRE-HEK293 cells using Lipofectamine 2000 and selected with 400 μg/mL Geneticin (Life Technologies, Carlsbad, CA). Single colony stable cell line overexpressing CRE-luciferase and GLP1R was then established for in vitro activity assay.

[2] = mouse, in vivo, iv, 1 mg/kg, Table 14, IV 1 mg/kg
[3] = mouse, in vivo, sc, 1 mg/kg, Table 14, SC 1 mg/kg

CC[C@H](C)[C@H](NC(=O)[C@H](CC(C)C)NC(=O)[C@H](Cc1c[nH]c2ccccc12)NC(=O)[C@@H]1CSCC(=O)NCCN(C(=O)CCC(=O)NCCOCCOCCC(=O)NCCOCCOCCC(=O)NCCCC[C@H](NC(=O)CCCCCCCCCCCCCCCCCCC(=O)O)C(=O)O)CCNC(=O)CSC[C@H](NC(=O)[C@H](CCCCN)NC(=O)[C@H](CC(=O)O)NC(=O)[C@H](CC(C)C)NC(=O)[C@H](Cc2ccc(O)cc2)NC(=O)[C@@H](NC(=O)[C@H](CO)NC(=O)[C@H](Cc2ccc(O)cc2)NC(=O)[C@H](CC(=O)O)NC(=O)[C@H](CO)NC(=O)[C@@H](NC(=O)[C@H](Cc2ccccc2)NC(=O)[C@@H](NC(=O)CNC(=O)[C@H](CCC(=O)O)NC(=O)C(C)(C)NC(=O)[C@@H](N)Cc2ccc(O)cc2)[C@@H](C)O)[C@@H](C)O)[C@@H](C)CC)C(=O)N[C@@H](C)C(=O)N[C@@H](C)C(=O)NC(C)(C)C(=O)N[C@@H](CCC(=O)O)C(=O)N[C@@H](Cc2ccccc2)C(=O)N[C@@H](C(C)C)C(=O)N1)C(=O)N[C@@H](C)C(=O)NCC(=O)NCC(=O)N1CCC[C@H]1C(=O)N[C@@H](CO)C(=O)N[C@@H](CO)C(=O)NCC(=O)N[C@@H](C)C(=O)N1CCC[C@H]1C(=O)N1CCC[C@H]1C(=O)N1CCC[C@H]1C(=O)N[C@@H](CO)C(N)=O [mCMV268]
EC50 (human GIPR; In Vitro Potency GIPR EC50, 10% FBS, Table 11, human, 10% FBS): 0.09 ± 0.02 nM
EC50 (human GIPR; Table 11, human, No Serum, read-out: In Vitro Potency GIPR EC50, No Serum): 0.01 ± 0.01 nM
EC50 (human GIPR; unnumbered table, average of runs, read-out: EC50 GIPR average): 0.04 nM
EC50 (human GIPR; unnumbered table, run 02/19, read-out: EC50 GIPR 02/19): 0.05 nM
EC50 (human GIPR; unnumbered table, run 03/25, read-out: EC50 GIPR 03/25): 0.04 nM
EC50 (human GIPR; unnumbered table, run 03/26, read-out: EC50 GIPR 03/26): 0.03 nM
EC50 (cynomolgous monkey GLP1R): 0.22 nM
EC50 (dog GLP1R): 1.48 nM
EC50 (dog GIPR): 0.42 nM
bioavailability ([1]; CD-1, mouse, plasma, sc, 1 mg/kg): 64%
Cl ([1]; Table 14, SC 1 mg/kg): 4.8 mL/h/kg
Vd ([1]; Table 14, SC 1 mg/kg): 0.087 L/kg
clearance ([1]; mouse, in vivo, iv, 1 mg/kg): 3 mL/h/kg
AUC(0-t) ([1]; mouse, in vivo, iv, 1 mg/kg, AUC0-24, Table 14, IV 1 mg/kg): 204 µg·h/mL
AUC(0-inf) [1, 2]: 327 µg·h/mL
AUC(0-t) ([1]; mouse, in vivo, iv, 1 mg/kg, AUCLAST, Table 14, IV 1 mg/kg): 315 µg·h/mL
Cmax [1, 2]: 34000 ng/mL
MRT last [1, 2]: 19.5 h
half-life ([1]; mouse, in vivo, iv, 1 mg/kg, IV 1 mg/kg): 14.8 h
Tmax [1, 2]: 0.5 h
Vd ([1]; mouse, in vivo, iv, 1 mg/kg, Vd, Table 14, IV 1 mg/kg): 0.067 L/kg
AUC(0-t) ([1]; mouse, in vivo, sc, 1 mg/kg, AUC0-24, Table 14, SC 1 mg/kg): 92.1 µg·h/mL
AUC(0-inf) [1, 3]: 208 µg·h/mL
AUC(0-t) ([1]; mouse, in vivo, sc, 1 mg/kg, AUCLAST, Table 14, SC 1 mg/kg): 200 µg·h/mL
Cmax [1, 3]: 4780 ng/mL
MRT last [1, 3]: 27.8 h
half-life ([1]; mouse, in vivo, sc, 1 mg/kg, SC 1 mg/kg): 12.8 h
Tmax [1, 3]: 24 h
EC50 (human GLP-1R; In Vitro Potency GLPIR EC50, 10% FBS, Table 11, human, 10% FBS): 1.96 ± 0.46 nM
EC50 (human GLP-1R; unnumbered table, average of runs, read-out: EC50 GLP1R average): 0.03 nM
EC50 (human GLP-1R; unnumbered table, run 02/19, read-out: EC50 GLP1R 02/19): 0.02 nM
EC50 (human GLP-1R; unnumbered table, run 3/25, read-out: EC50 GLP1R 3/25): 0.03 nM
EC50 (human GLP-1R; unnumbered table, run 03/26, read-out: EC50 GLP1R 03/26): 0.03 nM
